Values quoted from earlier work, collected in patent US20220223299A1, “METHODS AND APPARATUSES FOR MODELING, SIMULATING, AND TREATING HEREDITARY ANGIOEDEMA” (Takeda Pharmaceutical Company Limited, priority 2019, published 2022).

T1: FXIIa (Homo sapiens, UniProt P00748)
T1 sequence (P00748 20-372 partner limits assumed): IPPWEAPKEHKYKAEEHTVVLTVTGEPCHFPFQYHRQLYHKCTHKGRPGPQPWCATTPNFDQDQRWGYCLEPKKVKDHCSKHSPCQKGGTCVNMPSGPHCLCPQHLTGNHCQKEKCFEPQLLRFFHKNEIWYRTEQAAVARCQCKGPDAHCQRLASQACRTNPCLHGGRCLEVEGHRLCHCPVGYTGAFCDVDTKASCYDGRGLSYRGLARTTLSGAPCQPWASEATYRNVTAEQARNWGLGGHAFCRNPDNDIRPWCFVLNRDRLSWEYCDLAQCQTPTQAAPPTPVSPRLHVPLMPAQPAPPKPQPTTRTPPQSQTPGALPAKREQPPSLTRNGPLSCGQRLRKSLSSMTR
T1 sequence (P00748 373-615 limits assumed): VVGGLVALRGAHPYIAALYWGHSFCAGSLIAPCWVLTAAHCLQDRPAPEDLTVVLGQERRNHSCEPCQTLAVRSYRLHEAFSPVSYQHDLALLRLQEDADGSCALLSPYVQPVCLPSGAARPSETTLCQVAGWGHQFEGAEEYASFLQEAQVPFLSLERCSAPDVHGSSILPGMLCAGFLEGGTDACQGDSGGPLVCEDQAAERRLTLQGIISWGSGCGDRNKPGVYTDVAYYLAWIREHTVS


Assays:
FXIIa = target: T1, FXIIa; conditions: FXIIa in plasma and FXIIa_gC1qR
KAL (kallikrein) = target: T2, KAL (kallikrein) (Homo sapiens, UniProt P03952); conditions: KAL in plasma, KAL_HMWK in plasma and KAL_HMWK_gC1qR
T2 construct: The preKAL is cleaved by FXIIa resulting in KAL, the two-chain enzyme kallikrein
T2 sequence (P03952 20-390 partner limits assumed): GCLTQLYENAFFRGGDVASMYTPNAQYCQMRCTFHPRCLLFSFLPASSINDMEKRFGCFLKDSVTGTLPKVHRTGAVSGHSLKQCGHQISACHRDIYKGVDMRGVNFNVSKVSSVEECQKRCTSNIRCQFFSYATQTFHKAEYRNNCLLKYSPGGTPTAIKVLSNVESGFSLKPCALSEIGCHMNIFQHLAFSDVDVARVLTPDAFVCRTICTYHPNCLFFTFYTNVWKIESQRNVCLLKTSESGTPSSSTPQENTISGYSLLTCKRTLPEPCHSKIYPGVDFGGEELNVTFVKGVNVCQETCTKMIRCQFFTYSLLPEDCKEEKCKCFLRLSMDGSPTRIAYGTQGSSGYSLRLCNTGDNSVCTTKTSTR
T2 sequence (P03952 391-638 limits assumed): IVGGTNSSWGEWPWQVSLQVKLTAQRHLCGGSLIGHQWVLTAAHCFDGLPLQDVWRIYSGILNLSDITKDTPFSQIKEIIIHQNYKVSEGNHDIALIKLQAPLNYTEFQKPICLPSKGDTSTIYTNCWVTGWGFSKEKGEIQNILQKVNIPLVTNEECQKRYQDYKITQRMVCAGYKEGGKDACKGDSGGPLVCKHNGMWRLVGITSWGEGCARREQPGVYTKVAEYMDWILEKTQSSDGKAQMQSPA

[1] = in vivo
KAL (plasma kallikrein) = target: T3, KAL (plasma kallikrein) (Homo sapiens, UniProt P03952); conditions: KAL in plasma, KAL_HMWK in plasma and KAL_HMWK_gC1qR
T3 construct: The preKAL is cleaved by FXIIa resulting in KAL, the two-chain enzyme kallikrein
T3 sequence (P03952 20-390 partner limits assumed): as the sequence (P03952 20-390 partner limits assumed) above
T3 sequence (P03952 391-638 limits assumed): as the sequence (P03952 391-638 limits assumed) above

koff_C1Inh_FXIIa (FXIIa) [s⁻¹] | kon_C1Inh_FXIIa (FXIIa) [M⁻¹ s⁻¹] | Kd (FXIIa; read-out: Kd_C1Inh_FXIIa) [nM] | koff_C1Inh_KAL (KAL (kallikrein)) [s⁻¹] | kon_C1Inh_KAL (KAL (kallikrein)) [M⁻¹ s⁻¹] | Kd (KAL (kallikrein); read-out: Kd_C1Inh_KAL) [nM] | koff_KAL_Lanadelumab (KAL (plasma kallikrein)) [s⁻¹] | kon_KAL_Lanadelumab (KAL (plasma kallikrein)) [M⁻¹ s⁻¹] | Kd (KAL (plasma kallikrein); read-out: Kd_KAL_Lanadelumab) [nM] | Molecule | kdeg_C1Inh, degradation rate for C1Inh (vascular space) [s⁻¹] | kdeg_Bound_C1Inh, degradation rate for bound C1Inh (vascular space, bound C1Inh) [s⁻¹] | kdeg Lanadelumab KAL HMWK gC1qR, degradation rate for Lanadelumab bound with KAL HMWK gC1qR receptor complex (proximal space) [s⁻¹] | half-life [1] [days]
0.06364 | 37000 | 1720 | 0.00255 | 17000 | 150 | – | – | – | C1Inh: C1 inhibitor protein; binds to and inhibits both Factor XIIa and kallikrein | 4.58e-06 | 0.0038508 | – | –
– | – | – | – | – | – | 0.0004033 | 3.36e+06 | 0.12 | Lanadelumab: fully human IgG1 recombinant monoclonal antibody inhibitor of activated plasma kallikrein (antibody, chains of the INN, looked up, V domains shown) VH: EVQLLESGGGLVQPGGSLRLSCAASGFTFSHYIMMWVRQAPGKGLEWVSGIYSSGGITVYADSVKGRFTISRDNSKNTLYLQMNSLRAEDTAVYYCAYRRIGVPRRDEFDIWGQGTMVTVSS VL: DIQMTQSPSTLSASVGDRVTITCRASQSISSWLAWYQQKPGKAPKLLIYKASTLESGVPSRFSGSGSGTEFTLTISSLQPDDFATYYCQQYNTYWTFGQGTKVEIK | – | – | 9.63e-05 | 14
